Consider two molecules from patent publication US20210347900A1 (AstraZeneca / MedImmune, published 2021).

Read-outs that look alike come from different tables or passages of the source.

The target of assay [1] is T1, human LOX1 on cells (human LOX1 transfected CHO TREX cells) (human, UniProt P78380 1-273).
T1 construct: whole, on cells; also called hLOX1 transfected cells; hLOX1 CHO
Description: competition with DyLight 649 oxLDL on human LOX1 CHO TREX cells, FMAT.

Assay [2] addresses T2, recombinant human LOX1 (R&D Systems) (human, UniProt P78380 61-273). Description: competition with biotin CRP on immobilised recombinant hLOX1 (DELFIA), mean.
Assay [3] has as its target T3, human LOX1 SNP K167N variant on cells (K167N SNP transfected CHO TREX cells) (human, UniProt P78380 1-273).
T3 construct: whole, on cells; also called hLOX1 K167N; K167N hLOX1 CHO
Briefly: competition with DyLight 649 oxLDL on K167N hLOX1 CHO TREX cells (FMAT), mean.

Assay [4] addresses T1, human LOX1 on cells (human LOX1 …). Description: competition with DyLight 649 oxLDL on hLOX1 CHO TREX cells (FMAT), mean.
The target in assay [5] is T3, human LOX1 SNP K167N variant on cells …. Briefly: competition with DyLight 649 oxLDL on human LOX1 K167N CHO TREX cells, FMAT.
Assay [6] concerns the target T2, recombinant human LOX1 (R&D Systems). Description: competition with biotin CRP on plate-bound recombinant human LOX1, DELFIA.
The target of assay [7] is T4, Human CLEC-1B (CLEC-2) (human, UniProt Q9P126 58-229, limits assumed).
T4 construct: Bought protein; also called C-type lectin domain family 1 member B
T4 sequence (Q9P126 58-229 limits assumed): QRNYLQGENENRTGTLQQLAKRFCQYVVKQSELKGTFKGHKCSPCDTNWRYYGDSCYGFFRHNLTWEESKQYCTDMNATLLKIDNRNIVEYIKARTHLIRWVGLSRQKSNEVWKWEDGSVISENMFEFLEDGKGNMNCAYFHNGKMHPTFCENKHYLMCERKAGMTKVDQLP
Description: IgG binding ELISA on coated antigen, absorbance at 450 nm.

The target in assay [8] is T5, Human SR-A1 (MSR) (human, UniProt P21757 77-451).
T5 construct: Bought protein; also called Macrophage scavenger receptor types I and II
T5 sequence (looked up): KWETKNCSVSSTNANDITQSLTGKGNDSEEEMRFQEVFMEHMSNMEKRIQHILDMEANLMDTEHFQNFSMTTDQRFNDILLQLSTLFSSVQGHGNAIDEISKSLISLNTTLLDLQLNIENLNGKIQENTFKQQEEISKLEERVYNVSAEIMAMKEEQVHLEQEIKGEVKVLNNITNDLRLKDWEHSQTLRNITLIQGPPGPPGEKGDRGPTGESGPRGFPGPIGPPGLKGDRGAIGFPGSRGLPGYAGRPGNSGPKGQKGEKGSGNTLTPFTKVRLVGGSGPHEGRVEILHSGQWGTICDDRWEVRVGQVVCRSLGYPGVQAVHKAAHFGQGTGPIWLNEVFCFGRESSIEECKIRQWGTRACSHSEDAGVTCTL
Described as above.

Assay [9] deals with T6, Human SR-B3 (CD36) (human, UniProt P16671 30-439).
T6 construct: Bought protein; also called Platelet glycoprotein 4
T6 sequence (P16671 30-439 limits assumed): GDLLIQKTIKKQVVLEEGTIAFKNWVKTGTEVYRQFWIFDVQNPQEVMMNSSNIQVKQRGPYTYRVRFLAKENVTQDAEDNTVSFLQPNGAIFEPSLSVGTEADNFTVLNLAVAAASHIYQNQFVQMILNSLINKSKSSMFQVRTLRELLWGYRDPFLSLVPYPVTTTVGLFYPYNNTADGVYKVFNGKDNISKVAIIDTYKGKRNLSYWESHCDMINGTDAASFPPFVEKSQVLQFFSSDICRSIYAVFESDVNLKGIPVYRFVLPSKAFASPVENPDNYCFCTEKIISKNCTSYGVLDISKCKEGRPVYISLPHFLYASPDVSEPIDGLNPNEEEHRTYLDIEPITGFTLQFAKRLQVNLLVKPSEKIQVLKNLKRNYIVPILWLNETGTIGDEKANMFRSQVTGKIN
Described as above.

For assay [10], the target named is T7, Human CLEC-7A (Dectin-1) (human, UniProt Q9BXN2-2 66-201, limits assumed).
T7 construct: Bought protein; also called C-type lectin domain family 7 member A
T7 sequence (looked up): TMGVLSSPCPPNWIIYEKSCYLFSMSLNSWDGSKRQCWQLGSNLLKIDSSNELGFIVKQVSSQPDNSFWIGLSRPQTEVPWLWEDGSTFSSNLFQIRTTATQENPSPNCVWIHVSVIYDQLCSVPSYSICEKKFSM
The description is as above.

Assay [11] concerns the target T8, Human CLEC-1A (human, UniProt Q8NC01 74-280, limits assumed).
T8 construct: Bought protein; also called C-type lectin domain family 1 member A
T8 sequence (looked up): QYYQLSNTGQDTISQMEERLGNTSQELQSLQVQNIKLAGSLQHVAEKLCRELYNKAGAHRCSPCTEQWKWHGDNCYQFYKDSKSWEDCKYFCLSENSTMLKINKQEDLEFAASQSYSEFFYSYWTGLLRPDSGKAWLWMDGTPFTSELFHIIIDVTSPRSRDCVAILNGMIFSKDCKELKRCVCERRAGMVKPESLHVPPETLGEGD
The assay is described as above.

The target of assay [12] is T9, Human CLEC-4L (DC-SIGN) (human, UniProt Q9NNX6 62-404).
T9 construct: Bought protein; also called C-type lectin domain family 4 member L
T9 sequence (looked up): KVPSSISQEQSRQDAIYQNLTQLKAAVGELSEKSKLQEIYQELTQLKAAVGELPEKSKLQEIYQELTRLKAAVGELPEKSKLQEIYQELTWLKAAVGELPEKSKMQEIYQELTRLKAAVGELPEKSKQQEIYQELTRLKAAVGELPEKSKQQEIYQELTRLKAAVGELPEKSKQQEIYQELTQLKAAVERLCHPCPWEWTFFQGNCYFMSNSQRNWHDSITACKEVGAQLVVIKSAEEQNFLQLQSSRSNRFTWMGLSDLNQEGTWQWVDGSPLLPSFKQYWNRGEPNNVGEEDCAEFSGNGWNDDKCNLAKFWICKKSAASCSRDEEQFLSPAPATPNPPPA
Described as above.

Assay [13] concerns the target T1, human LOX1 on cells (human LOX1 …). Description: competition with DyLight 649 AGE-BSA on human LOX1 CHO TREX cells, FMAT.
In assay [14] the target is T10, rat LOX1-(FlagHis) extracellular domain (rat, UniProt O70156 55-364).
T10 construct: extracellular domain
T10 sequence (O70156 55-364): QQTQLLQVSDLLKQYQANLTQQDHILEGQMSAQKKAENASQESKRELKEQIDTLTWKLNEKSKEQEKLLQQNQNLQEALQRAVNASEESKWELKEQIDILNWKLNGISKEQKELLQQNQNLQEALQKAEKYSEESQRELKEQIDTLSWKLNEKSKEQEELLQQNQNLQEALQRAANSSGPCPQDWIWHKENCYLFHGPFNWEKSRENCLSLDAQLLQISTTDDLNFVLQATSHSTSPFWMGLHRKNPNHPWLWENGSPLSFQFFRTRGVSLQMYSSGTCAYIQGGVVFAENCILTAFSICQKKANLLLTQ
Description: IgG binding ELISA on coated antigen, europium anti-human IgG detection.

For assay [15], the target named is T11, rabbit LOX1-(FlagHis) extracellular domain (rabbit, UniProt Q9XTA8 55-274).
T11 construct: extracellular domain
T11 sequence (Q9XTA8 55-274): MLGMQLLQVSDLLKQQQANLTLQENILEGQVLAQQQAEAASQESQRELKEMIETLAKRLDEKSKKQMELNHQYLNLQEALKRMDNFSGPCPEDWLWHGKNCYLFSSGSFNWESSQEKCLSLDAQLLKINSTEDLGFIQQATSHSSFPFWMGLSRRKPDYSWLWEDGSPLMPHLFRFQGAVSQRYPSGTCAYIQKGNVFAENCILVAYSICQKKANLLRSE
Described as above.

Assay [16] addresses T12, mouse LOX1-(FlagHis) extracellular domain (mouse, UniProt Q9EQ09 55-363).
T12 construct: extracellular domain
The description is as above.

For assay [17], the target named is T1, human LOX1 on cells (human LOX1 …). Briefly: cell-based or functional assay.
For assay [18] the target is unchanged. Description: competition with DyLight 649 AGE-BSA on hLOX1 CHO TREX cells (FMAT), mean.
Assay [19] shares this target. Description: competition with DyLight 649 AGE-BSA on hLOX1 CHO TREX cells (FMAT); row label not given, assay assigned by block order of Table 5.
For assay [20] the target is unchanged. Briefly: saturation binding of DyLight 649 labelled antibody on hLOX1 CHO TREX cells (FMAT); DyLight 649 labeled antibody on hLOX1 CHO TREX cells.
Assay [21] shares this target. Description: competition with DyLight 649 oxLDL on hLOX1 CHO TREX cells (FMAT); row label not given, assay assigned by block order of Table 5.
The target of assay [22] is T2, recombinant human LOX1 (R&D Systems). Briefly: competition with biotin CRP on plate-bound recombinant human LOX1, DELFIA. This is another data set of the same source.
Assay [23] shares this target. Briefly: competition with biotin CRP on immobilised recombinant hLOX1 (DELFIA); row label not given, assay assigned by block order of Table 5.
The target of assay [24] is T4, Human CLEC-1B (CLEC-2). Description: IgG binding ELISA on coated antigen, absorbance at 450 nm. This is another data set of the same source.
In assay [25] the target is T5, Human SR-A1 (MSR). The description is as above. This is another data set of the same source.
Assay [26] addresses T6, Human SR-B3 (CD36). The assay is described as above. This is another data set of the same source.
Assay [27] addresses T7, Human CLEC-7A (Dectin-1). The description is as above. The source holds these as a separate data set.
The target of assay [28] is T8, Human CLEC-1A. The description is as above. The source holds these as a separate data set.
The target of assay [29] is T9, Human CLEC-4L (DC-SIGN). The assay is described as above. The source holds these as a separate data set.
The target in assay [30] is T1, human LOX1 on cells (human LOX1 …). Description: cell-based or functional assay. This is another data set of the same source.
The target is the same in assay [31]. Description: competition with DyLight 649 AGE-BSA on human LOX1 CHO TREX cells, FMAT. This is another data set of the same source.

T12 sequence (Q9EQ09 55-363): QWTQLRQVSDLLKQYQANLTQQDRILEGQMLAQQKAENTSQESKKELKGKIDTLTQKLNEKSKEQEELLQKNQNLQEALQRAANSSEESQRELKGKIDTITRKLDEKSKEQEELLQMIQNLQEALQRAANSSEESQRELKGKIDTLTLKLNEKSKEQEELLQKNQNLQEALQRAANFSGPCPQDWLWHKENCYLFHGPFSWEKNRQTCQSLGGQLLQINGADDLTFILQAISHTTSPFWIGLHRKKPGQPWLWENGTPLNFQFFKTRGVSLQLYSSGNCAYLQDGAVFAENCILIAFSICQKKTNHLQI

B1: LX6960073_G82bS_gl IgG1-TM (antibody, V domains shown)
VH: EVQLVESGGGLVQPGRSLRLSCAASGFTSDDYAMHWVRQAPGKGLEWVSGISWNSGSIGYADSVKGRFTISRDNAKNSLYLQMNSLRAEDTAVYYCAREGSWNYDALDIWGQGTMVTVSS
VL: QSALTQPASVSGSPGQPITISCTGTSSDVGGYNYVSWYQQHPGKAPKLMIYDVSKRPSGVSNRFSGSKSGNTASLTISGLQAEDEADYYCMGGMGRSTNWVFGGGTKLTVL
notes: Whole human IgG1-TM, germlined, with heavy chain G82bS (Kabat); also called LOX10696_73
In the case of B1, the “IC50 (read off the curve)” value in [1] was about 0.8 nM; in [5] it was about 0.3 nM; in assay [6] it was about 3 nM; in [13] it was about 0.02 nM. The IC50 in assay [2] came out at 3 nM; in [3], 0.105 nM; in assay [4] it was 0.02 nM; in assay [18], 0.0177 nM. Also, the binding result with Human CLEC-1B (CLEC-2) [7], with Human SR-A1 (MSR) [8], in the assay with Human SR-B3 (CD36) [9], with Human CLEC-7A (Dectin-1) [10], with Human CLEC-1A [11] and with Human CLEC-4L (DC-SIGN) [12] was “no binding” throughout. Besides, the binding result in assay [14], in assay [15] and in [16] was “no binding (tested: 10 µg/mL (single concentration))” in each case. Besides, the “ROS ASSAY (IC50, mean)” value in assay [17] was 2.21 nM. Moreover, in assay [17], the “oxLDL/hLOX1 CHO Internalisation (IC50, mean)” value is 0.38 nM.

B2: LOX514 IgG1-TM (antibody, V domains shown)
VH: QVQLVQSGAEVKKPGASVKVSCKVSGYTLTELSMHWVRQAPGKGLEWMGGFDPEDGETIYAQKFQGRVTMTEDTSTDTAYMELSSLRSEDTAVYYCATPNGQQGKGVRGWDYYYGMDVWGRGTTVTVSS
VL: QSVVTQPPSVSGAPGQRVTISCTGSSSNIGAGYDVHWYQQLPGTAPKLLIYGNSNRPSGVPDRFSGSKSGTSASLAITGLQAEDEADYYCQSYDSSLSGWVFGGGTKLTVL
notes: Whole human IgG1-TM (L234F/L235E/P331S); Labelled with DyLight 649 in Assay 7; also called LOX10514-IgG1-TM; LOX10514 IgG1-TM
On to B2, for which the 50% inhibitory concentration (IC50) was 0.207 nM in assay [19], 0.642 nM in assay [21] and 1.98 nM in assay [23]. The same molecule returned a Kd in assay [20] of 0.8 nM. Besides, the figures for the “IC50 (read off the curve)” value in assay [22] and in assay [31] were about 2 nM and about 0.1 nM, respectively. Also, the binding result with Human CLEC-1B (CLEC-2) [24], with Human SR-A1 (MSR) [25], in the assay with Human SR-B3 (CD36) [26], with Human CLEC-7A (Dectin-1) [27], with Human CLEC-1A [28] and in the assay with Human CLEC-4L (DC-SIGN) [29] was “no binding (tested: 0.2 µg/mL (single concentration))” in each case. For the same molecule, the “IC50 of inhibition of Cypher 5E oxLDL internalization in hLOX1 CHO TREX cells (row label not given; assay assigned by block order of Table 5)” value in [30] is 0.772 nM. Moreover, the “IC50 of inhibition of oxLDL-dependent ROS generation in hLOX1 CHO TREX cells (row label not given; assay assigned by block order of Table 5)” value in assay [30] turned out to be 8.28 nM.
